From article PMC4589789, “Anti-interleukin-6 therapy through application of a monogenic protein inhibitor via gene delivery” (Scientific Reports, 2015) come the findings set out here.

The target in data set [1] is murine IL-6 (mouse) (UniProt P08505).
The target is the same in data set [2]. This is another data set of the same source.
Data set [3] deals with the molecule itself. Briefly: SDS-PAGE under non-reducing and reducing conditions; purified mIL-6-RFP-Fc on 7.5% SDS/PAGE, Coomassie staining and Western blotting; disulfide-linked dimer versus monomer.

murine IL-6 (mouse), sequence (P08505 25-211): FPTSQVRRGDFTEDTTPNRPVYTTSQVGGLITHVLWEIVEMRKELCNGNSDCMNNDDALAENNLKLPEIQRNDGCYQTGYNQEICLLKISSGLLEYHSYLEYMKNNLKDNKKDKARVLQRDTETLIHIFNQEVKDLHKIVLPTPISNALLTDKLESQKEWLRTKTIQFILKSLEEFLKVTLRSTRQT

B1: mIL-6-RFP-Fc (murine IL-6 receptor fusion protein with engineered mIgG2a Fc-fragment and 3V5-3HA tag) (Fc fusion)
chain: QLLEPCGYIYPEFPVVQRGSNFTAICVLKEACLQHYYVNASYIVWKTNHAAVPREQVTVINRTTSSVTFTDVVLPSVQLTCNILSFGQIEQNVYGVTMLSGFPPDKPTNLTCIVNEGKNMLCQWDPGRETYLETNYTLKSEWATEKFPDCQSKHGTSCMVSYMPTYYVNIEVWVEAENALGKVSSESINFDPVDKVKPTPPYNLSVTNSEELSSILKLSWVSSGLGGLLDLKSDIQYRTKDASTWIQVPLEDTMSPRTSFTVQDLKPFTEYVFRIRSIKDSGKGYWSDWSEEASGTTYEDLVLGSCRALEVANGTVTSLPGATVTLICPGKEAAGNVTIHWVYSGSQNREWTTTGNTLVLRDVQLSDTGDYLCSLNDHLVGTVPLLVDVPPEEPKLSCFRKNPLVNAICEWRPSSTPSPTTKAVLFAKKINTTNGKSDFQVPCQYSQQLKSFSCQVEILEGDKVYHIVSLCVANSVGSKSSHNEAFHSLKMVQPDPPANLVVSAIPGRPRWLKVSWQHPETWDPSYYLLQFQLRYRPVWSKEFTVLLLPVAQYQCVIHDALRGVKHVVQVRGKEELDLGQWSEWSPEVTGTPWIPRGPTIKPCPPCKCPAPNLEGGPSVFIFPPKIKDVLMISLSPIVTCVVVDVSEDDPDVQISWFVNNVEVHTAQTQTHREDYNSTLRVVSALPIQHQDWMSGKAFACAVNNKDLPAPIERTISKPKGSVRAPQVYVLPPPEEEMTKKQVTLTCMVTDFMPEDIYVEWTNNGKTELNYKNTEPVLDSDGSYFMYSKLRVEKKNWVERNSYSCSVVHEGLHNHHTTKSFSRTPGK
On to B1, for which the IC50 of inhibition of IL-6 (37 pM)-dependent proliferation of Ba/F3-mgp130/mIL-6Rα cells, serial 2-fold dilutions from 3.9 nM, XTT assay after 60 h with murine IL-6 (mouse) [1] was 3.3e-05 μM. In the data set with murine IL-6 (mouse) [2], the attenuation of IL-6 (100 ng i.v.)-induced ERK1/2 phosphorylation in mouse kidney after pretreatment with mIL-6-RFP-Fc i.p. for 45 min (4, 12 or 40 μg; value for 40 μg, 70× molar excess) stood at 50%; the attenuation of IL-6 (100 ng i.v.)-induced ERK1/2 phosphorylation in mouse liver after pretreatment with mIL-6-RFP-Fc i.p. for 45 min (4, 12 or 40 μg; value for 40 μg, 70× molar excess) amounted to 63%; the attenuation of IL-6 (100 ng i.v.)-induced STAT3 phosphorylation in mouse kidney after pretreatment with mIL-6-RFP-Fc i.p. for 45 min (4, 12 or 40 μg; value for 40 μg, 70× molar excess) turned out to be 80%; the attenuation of IL-6 (100 ng i.v.)-induced STAT3 phosphorylation in mouse liver after pretreatment with mIL-6-RFP-Fc i.p. for 45 min (4, 12 or 40 μg; value for 40 μg, 70× molar excess) is 12%. Moreover, the stoichiometry N (in general, the number of molecules, sites or subunits per partner or assembly) in data set [3] came to 2.
